Test results: PMC6265248

Molecular target: C. reinhardtii Rubisco (CrRubisco), L8S8 holoenzyme (C. reinhardtii (endogenous in strain CC-2677)) (UniProt P00877)
Test: co-sedimentation; droplet sedimentation assay of demixed (phase-separated) EPYC1-Rubisco droplets, with microscopy: 10 µl reactions, 10 min, 20 mM Tris-HCl pH 8.0, 50 mM NaCl, room temperature, 21,100 x g, SDS-PAGE and densitometry of pellet and supernatant

Essential Pyrenoid Component 1 (EPYC1), residues 46-317 (natural protein)
stoichiometry N (EPYC1:Rubisco): 1 to 4 | stoichiometry N (EPYC1 molecules per Rubisco holoenzyme): 2
